The data set concerns the target T1, synthetic apoA-IMilano peptide 167-R173C-184.
T1 chain: SDELRQCLAARLEALKEN

B1: recombinant human LCAT enzyme (Lecithin:Cholesterol Acyltransferase) (protein)
chain: FWLLNVLFPPHTTPKAELSNHTRPVILVPGCLGNQLEAKLDKPDVVNWMCYRKTEDFFTIWLDLNMFLPLGVDCWIDNTRVVYNRSSGLVSNAPGVQIRVPGFGKTYSVEYLDSSKLAGYLHTLVQNLVNNGYVRDETVRAAPYDWRLEPGQQEEYYRKLAGLVEEMHAAYGKPVFLIGHSLGCLHLLYFLLRQPQAWKDRFIDGFISLGAPWGGSIKPMLVLASGDNQGIPIMSSIKLKEEQRITTTSPWMFPSRMAWPEDHVFISTPSFNYTGRDFQRFFADLHFEEGWYMWLQSRDLLAGLPAPGVEVYCLYGVGLPTPRTYIYDHGFPYTDPVGVLYEDGDDTVATRSTELCGLWQGRQPQPVHLLPLHGIQHLNMVFSNLTLEHINAILLGAYRQGPPASPTASPEPPPPE
As to B1, the “LCAT activation (esterification of [14C]cholesterol on a proteoliposome substrate), as a percentage of activation obtained with apoA-IWT” value was “failed in this regard”.
